Measured values: PMC7954794, “Protein context shapes the specificity of SH3 domain-mediated interactions in vivo” (Nature Communications, 2021)

Key:
Type in all cases: cell-based, Saccharomyces cerevisiae
[1] = test system: ABP1; test: DHFR-PCA on solid medium, bait ABP1 (Fig. 1B); settings: bait ABP1, label = prey
Text: (§1) Supplement 41467_2021_21873_MOESM8_ESM.xlsx, sheet "Fig1B" | column: medsize; medrep; Ratio; Score

[2] = test system: BEM1-1; test: DHFR-PCA on solid medium, bait BEM1-1 (Fig. 1B); settings: bait BEM1-1, label = prey; for medrep (log2 median colony size normalized to plate background, PCA score): 2-8 replicates; for Ratio (SH3-deleted/WT medrep): only significant differences showed, PPIs completely lost have a ratio of 0.1 and the gained PPIs 2.5
Text: as §1

[3] = test system: Hua2; test: Deep mutational scanning of Abp1 SH3, Abp1-Hua2 DHFR-PCA (DMS score); settings: Abp1-Hua2 DHFR-PCA; for HUA2_MTX2: frequencies normalized to the reference condition, MTX2, amino acid level; for hua2sc (DMS score): frequencies scaled to the synonymous mutation distribution
Summary of the method: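 Saturation mutagenesis (NNN per codon) of Abp1 SH3, reintegrated at the genomic locus in yeast and mated with Hua2- or Lsb3-DHFR F[3] prey strains. Diploids underwent two rounds of liquid DHFR-PCA selection (72 h each, 30 °C), in biological duplicate. Mutant abundance was tracked by Illumina sequencing against the pre-selection reference.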

[4] = test system: Lsb3; test: Deep mutational scanning of Abp1 SH3, Abp1-Lsb3 DHFR-PCA (DMS score); settings: Abp1-Lsb3 DHFR-PCA; for LSB3_MTX2: frequencies normalized to the reference condition, MTX2, amino acid level; for lsb3sc (DMS score): frequencies scaled to the synonymous mutation distribution
Procedure: Single site mutation libraries were generated by a PCR-based saturation mutagenesis method[50] as described below. The mutagenesis was carried out on the pUC19 plasmid containing the SH3 domain sequence of ABP1 flanked by its homology arms subsequently used in the CRISPR mediated genomic re-integration. We used oligos containing degenerate nucleotides (NNN) to carry out the mutagenesis at each codon of the domain sequence. In the first step of the two-step PCR procedure (short PCR step), an amplicon was generated with an oligo containing the degenerate codon which is positioned within the domain sequence, and another oligo lying outside Abp1 sequence in the plasmid. Short PCR step was carried out with the following settings: 5 min at 95 °C, 35 cycles: 20 s at 98 °C, 15 s at 60 °C, 30 s at 72 °C, and a final extension of 1 min at 72 °C. The amplicon generated in this step was used as a mega primer in the second step (long PCR step) to amplify the whole plasmid. Long PCR step was carried out with the following settings: 5 min at 95 °C, 22 cycles: 20 s at 98 °C, 15 s at 68 °C, 3 min 30 s at 72 °C, and a final extension of 5 min at 72 °C. The long PCR product was digested for 2 h at 37 °C with DpnI. The digestion product was then transformed into E. coli MC1061 competent cells. In order to obtain most of the 64 possible codons, we recovered ~1000 colonies from each plate to retrieve the plasmid single mutant libraries. Saturation mutagenesis was carried out in a codon-position-wise manner. Mutants at each position were stored separately. Library quality control was assessed by amplifying the purified plasmid DNA preparations by PCR followed by Illumina sequencing as described below. The genomic insertion of the mutant libraries (one library per amino acid position) was performed by targeting the stuffer sequence in the ABP1 SH3-deleted strain as described in the strain construction section. ABP1 SH3-deleted yeast competent cells were co-transformed with pCAS containing the stuffer-specific gRNA and PCR amplified ABP1 SH3 single position mutated libraries from the pUC19 preparations. As for the library generation, ~1000 colonies from each plate were retrieved. Glycerol stocks of yeast cells were kept for each position (58 different stocks corresponding to the 58 amino acid positions of Abp1 SH3). The stocks were also validated by Illumina sequencing (see below).
Liquid DHFR-PCA experiments were performed following the generation of the ABP1 SH3 single position mutated yeast strains and were performed in biological independent duplicates. An overnight culture was started in YPD + NAT by adding the same number of cells from each yeast mutant strain (master pool). Then, the master pool and Hua2-DHFR F[3] or Lsb3-DHFR F[3] preys strains were mixed in YPD (2:1) for mating and incubated for 8 h at 30 °C. Diploid cells were selected the first time by transferring the mixture in a YPD + NAT + HPH (OD 0.5) culture for 16 h at 30 °C. The next day, the first diploid selection was transferred in SC complete pH 6.0 + NAT + HPH at 0.5 OD and the culture was grown for 24 h at 30 °C. The validation of the yeast mutant libraries was done the next day with a fraction of the diploid cells (first DHFR-PCA experiment time point without PCA selection, reference condition S2) by amplifying ABP1 SH3 genomic sequence followed by Illumina sequencing as described in the section below. Following the selection, diploid cells OD was read using a TECAN Infinite F200 Pro, and dilutions to 0.1 OD in PCA selection media without agar in a 50 mL tube was done. Tubes were incubated at 30 °C for 72 h (second-time point of the DHFR-PCA experiment, first PCA selection). A fraction of the cells (5U OD) was collected for Illumina sequencing. The cells from the first PCA step were grown for a second PCA selection step using the same procedures. […]

Row | Molecule | medrep (log2 median colony size normalized to plate background, PCA score) ([1]; 2-4 replicates) | Ratio (SH3-deleted/WT medrep) ([1]; only significant differences showed, PPIs completely lost have a ratio of 0.1 and the gained PPIs 2.5) | medrep (log2 median colony size normalized to plate background, PCA score) [2] | Ratio (SH3-deleted/WT medrep) [2] | HUA2_MTX2 [3] | hua2sc (DMS score) [3] | LSB3_MTX2 [4] | lsb3sc (DMS score) [4]
1 | YDL065C (protein, UniProt Q07418 1-339, looked up) Peroxisomal membrane protein …: MNENEYDNFDDLDDLLDEDPTKLDEAEPDDVQAKGSVYNDSENKEKNAESKDSDGVQVANESEEDPELKEMMVDLQNEFANLMKNNGNENNVKTEDFNKLISALEEAAKVPHQQMEQGCSSLKSNSTDKGTVNGSNPGFKNIVSNTLDRLKENGNKVDTSLAEETKESQRSGQNNNIDDILSQLLDQMVASGGKESAENQFDLKDGEMDDAITKILDQMTSKEVLYEPMKEMRSEFGVWFQENGENEEHKEKIGTYKRQFNIVDEIVNIYELKDYDELKHKDRVTELLDELEQLGDSPIRSANSPLKHGNEEEELMKMLEIDGNDPNLGNLDKELTDGC | 3.518 | 1.321 | 3.086 | 2.5 |  |  |  | 
2 | YLR191W (protein) EFARALYDFVPENPEMEVALKKGDLMAILSKKDPLGRDSDWWKVRTKNGNIGYIPYNYIEIIK |  |  | 3.807 | 2.5 |  |  |  | 
3 | YDR329C (protein, UniProt P28795 1-441, looked up) Peroxisomal biogenesis factor …: MAPNQRSRSLLQRHRGKVLISLTGIAALFTTGSVVVFFVKRWLYKQQLRITEQHFIKEQIKRRFEQTQEDSLYTIYELLPVWRMVLNENDLNLDSIVTQLKDQKNQLTRAKSSESRESSPLKSKAELWNELELKSLIKLVTVTYTVSSLILLTRLQLNILTRNEYLDSAIKLTMQQENCNKLQNRFYNWVTSWWSDPEDKADDAMVMAAKKSKKEGQEVYINEQAFLSLSWWILNKGWLSYNEIITNQIEIEFDGIHPRDTLTLEEFSSRLTNIFRNTNSQIFQQNNNNLTSILLPKDSSGQEFLLSQTLDADALTSFHSNTLVFNQLVNELTQCIESTATSIVLESLINESFHFIMNKVGIKTIAKKKPGQEDQQQYQMAVFAMSMKDCCQEMLQTTAGSSHSGSVNEYLATLDSVQPLDDLSASVYSNFGVSSSFSFKP |  |  | 2.151 | 2.5 |  |  |  | 
4 | ABP1 E21E (protein, UniProt P15891 2-592, looked up, synonymous codon change E21E in SH3) Actin-binding protein: ALEPIDYTTHSREIDAEYLKIVRGSDPDTTWLIISPNAKKEYEPESTGSSFHDFLQLFDETKVQYGLARVSPPGSDVEKIIIIGWCPDSAPLKTRASFAANFAAVANNLFKGYHVQVTARDEDDLDENELLMKISNAAGARYSIQTSSKQQGKASTPPVKKSFTPSKSPAPVSKKEPVKTPSPAPAAKISSRVNDNNDDDDWNEPELKERDFDQAPLKPNQSSYKPIGKIDLQKVIAEEKAKEDPRLVQKPTAAGSKIDPSSDIANLKNESKLKRDSEFNSFLGTTKPPSMTESSLKNDDDKVIKGFRNEKSPAQLWAERKAKQNSGNAETKAEAPKPEVPEDEPEGEPDVKDLKSKFEGLAASEKEEEEMENKFAPPPKKSEPTIISPKPFSKPQEPVKAEEAEQPKTDYKKIGNPLPGMHIEADNEEEPEENDDDWDDDEDEAAQPPLPSRNVASGAPVQKEEPEQEEIAPSLPSRNSIPAPKQEEAPEQAPEEEIEEEAEEAAPQLPSRSSAAPPPPPRRATPEKKPKENPWATAEYDYDAAEDNELTFVENDKIINIEFVDDDWWLGELEKDGSKGLFPSNYVSLGN |  |  |  |  | 2.3423 | 0.7295 | 2.169 | 0.669
5 | ABP1 D23D (protein, UniProt P15891 2-592, looked up, synonymous codon change D23D) Actin-binding protein: ALEPIDYTTHSREIDAEYLKIVRGSDPDTTWLIISPNAKKEYEPESTGSSFHDFLQLFDETKVQYGLARVSPPGSDVEKIIIIGWCPDSAPLKTRASFAANFAAVANNLFKGYHVQVTARDEDDLDENELLMKISNAAGARYSIQTSSKQQGKASTPPVKKSFTPSKSPAPVSKKEPVKTPSPAPAAKISSRVNDNNDDDDWNEPELKERDFDQAPLKPNQSSYKPIGKIDLQKVIAEEKAKEDPRLVQKPTAAGSKIDPSSDIANLKNESKLKRDSEFNSFLGTTKPPSMTESSLKNDDDKVIKGFRNEKSPAQLWAERKAKQNSGNAETKAEAPKPEVPEDEPEGEPDVKDLKSKFEGLAASEKEEEEMENKFAPPPKKSEPTIISPKPFSKPQEPVKAEEAEQPKTDYKKIGNPLPGMHIEADNEEEPEENDDDWDDDEDEAAQPPLPSRNVASGAPVQKEEPEQEEIAPSLPSRNSIPAPKQEEAPEQAPEEEIEEEAEEAAPQLPSRSSAAPPPPPRRATPEKKPKENPWATAEYDYDAAEDNELTFVENDKIINIEFVDDDWWLGELEKDGSKGLFPSNYVSLGN |  |  |  |  | 1.908 | 0.295 | 1.357 | -0.1431
6 | ABP1 N22N (protein, UniProt P15891 2-592, looked up, synonymous codon change N22N) Actin-binding protein: ALEPIDYTTHSREIDAEYLKIVRGSDPDTTWLIISPNAKKEYEPESTGSSFHDFLQLFDETKVQYGLARVSPPGSDVEKIIIIGWCPDSAPLKTRASFAANFAAVANNLFKGYHVQVTARDEDDLDENELLMKISNAAGARYSIQTSSKQQGKASTPPVKKSFTPSKSPAPVSKKEPVKTPSPAPAAKISSRVNDNNDDDDWNEPELKERDFDQAPLKPNQSSYKPIGKIDLQKVIAEEKAKEDPRLVQKPTAAGSKIDPSSDIANLKNESKLKRDSEFNSFLGTTKPPSMTESSLKNDDDKVIKGFRNEKSPAQLWAERKAKQNSGNAETKAEAPKPEVPEDEPEGEPDVKDLKSKFEGLAASEKEEEEMENKFAPPPKKSEPTIISPKPFSKPQEPVKAEEAEQPKTDYKKIGNPLPGMHIEADNEEEPEENDDDWDDDEDEAAQPPLPSRNVASGAPVQKEEPEQEEIAPSLPSRNSIPAPKQEEAPEQAPEEEIEEEAEEAAPQLPSRSSAAPPPPPRRATPEKKPKENPWATAEYDYDAAEDNELTFVENDKIINIEFVDDDWWLGELEKDGSKGLFPSNYVSLGN |  |  |  |  | 0.8417 | -0.7711 | 0.8355 | -0.6648
7 | YGL153W (protein, UniProt P53112 2-341, looked up) Peroxisomal membrane protein …: SDVVSKDRKALFDSAVSFLKDESIKDAPLLKKIEFLKSKGLTEKEIEIAMKEPKKDGIVGDEVSKKIGSTENRASQDMYLYEAMPPTLPHRDWKDYFVMATATAGLLYGAYEVTRRYVIPNILPEAKSKLEGDKKEIDDQFSKIDTVLNAIEAEQAEFRKKESETLKELSDTIAELKQALVQTTRSREKIEDEFRIVKLEVVNMQNTIDKFVSDNDGMQELNNIQKEMESLKSLMNNRMESGNAQDNRLFSISPNGIPGIDTIPSASEILAKMGMQEESDKEKENGSDANKDDNAVPAWKKAREQTIDSNASIPEWQKNTAANEISVPDWQNGQVEDSIP |  |  | 2.088 | 2.5 |  |  |  | 
8 | YOL147C (protein, UniProt Q12462 2-236, looked up) Peroxisomal membrane protein …: VCDTLVYHPSVTRFVKFLDGSAGREKVLRLLQYLARFLAVQNSSLLARQLQAQFTTVRKFLRFLKPLNHLQAAAKFYDNKLASDNVVRVCNVLKNIFFAAYLSLDQVNLLRILKVIPVTVLTGKKIPRWSNWCWLFGLLSGLAMDLRKIQTSHAQIAAFVKAKSQSQGDEHEDHKKVLGKAYQDRYTALRRLFWDAADSFIVLNNLGYLSSNEEYVALSGVVTSILGMQDMWKAT |  |  | 4.705 | 2.5 |  |  |  | 
